Results from US20230071422A1 (BEIJING WISDOMAB BIOTECHNOLOGY, published 2023).

Key:
[1] = molecular target: T1, CD123 on the surface of CD123-positive cells (KG-1a, MV-4-11) (human, UniProt P26951 19-378); assay: flow cytometry titration on MV-4-11 cells, goat anti-human IgG-FITC secondary antibody
T1 construct: whole, on cells; Endogenous CD123 on KG-1a (human acute myeloid leukemia) and MV-4-11 (human acute monocytic leukemia) cells; also called cell surface CD123 antigen; CD123 on the surface of MV-4-11 cells
Method: (§1) MV-4-11 cells at the logarithmic phase of growth were used and resuspended to 2×10⁶ cells/well with PBS buffer containing 1% BSA after centrifugation. MV-4-11 cells were plated in a 96-well V-bottom plate at 100 μL/well, and the supernatant was removed after centrifugation. […] The antibodies were added to the wells containing cells and incubated at 4° C. for 1 hour. Then, the plate was washed three times with 200 μL PBS buffer. The goat anti-human IgG-FITC secondary antibody (ZF-0308, ZSGB-BIO) was added to the wells (100 μL/well), and incubated at 4° C. for 30 minutes in the dark. Then, the cells were washed three times with 200 μL of PBS buffer, and resuspended in 100 μL of PBS buffer to detect FITC channel by flow cytometer (ACEA, Novocyte).

[2] = molecular target: T1, CD123 on the surface of CD123-positive …; assay: flow cytometry on MV-4-11 cells, titration from 100 nM, goat anti-human IgG-FITC; MV-4-11 cells, flow cytometry titration (apparent KD)
Method: as §1, with “MV-4-11” for “MV-4-11 cells at the logarithmic phase of growth were used and resuspended to 2×10⁶ cells/well with PBS buffer containing 1% BSA after centrifugation. MV-4-11”

[3] = molecular target: T2, extracellular region of human CD123 subtype 1 with C-terminal His tag (hCD123-SP1-his) (human (Homo sapiens), UniProt P26951 19-305); assay: SPR, Biacore X100; antibody captured by anti-human IgG (Fc), hCD123-SP1-his as analyte, 1:1 model
T2 construct: Recombinant, expressed in HEK293 cells
T2 sequence: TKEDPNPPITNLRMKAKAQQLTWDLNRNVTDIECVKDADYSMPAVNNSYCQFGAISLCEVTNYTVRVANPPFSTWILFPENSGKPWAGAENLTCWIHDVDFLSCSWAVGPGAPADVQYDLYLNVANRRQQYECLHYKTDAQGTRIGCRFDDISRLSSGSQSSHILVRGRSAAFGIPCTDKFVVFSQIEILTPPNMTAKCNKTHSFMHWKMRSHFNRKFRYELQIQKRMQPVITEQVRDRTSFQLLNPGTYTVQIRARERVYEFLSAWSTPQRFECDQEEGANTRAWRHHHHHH
Method: (§2) The affinity of anti-CD123 antibodies was determined by surface plasmon resonance using Biacore X100. Related reagents and consumables such as Amino Conjugation Kit (BR-1000-50), Human Antibody Capture Kit (BR-1008-39), CM5 Chip (BR100012) and 10×HBS-EP (BR100669) buffer with pH 7.4 were all purchased from GE healthcare. According to the instructions in the kits, 1-Ethyl-3-(3-dimethylaminopropyl) carbodiimide hydrochloride (EDC) and N-Hydroxysuccinimide (NHS) was used to activate the surface of the carboxylated CM5 chip, and the anti-human IgG (Fc) antibody (capture antibody) was diluted to 25 μg/mL with 10 mM, pH5.0 sodium acetate, followed by an injection with a flow rate at 10 μL/min to achieve a coupling volume of approximately 10,000 response units (RU). Following the injection of the capture antibody, 1 M ethanolamine was injected to block unreacted groups. […] The chip surface was regenerated by injecting 3M MgCl₂ solution at 10 μL/min for 30 s. Association rates (Kₒₙ) and dissociation rates (Koff) were calculated from association and dissociation sensorgrams fitted by a 1:1 binding model using Biacore X100 evaluation software version 2.0.1. The dissociation equilibrium constant (KD) was calculated as the ratio Koff/Kₒₙ.

[4] = molecular target: T2, extracellular region of human CD123 …; assay: as above; remark: listed apart in the source
Method: as §2

[5] = molecular target: T3, extracellular region of human CD3E with C-terminal His tag (hCD3E-his) (human (Homo sapiens), UniProt P07766 23-126); assay: SPR, Biacore X100; antibody captured by anti-human IgG (Fc) on CM5, hCD3E-his as analyte, 1:1 model, 25 C
T3 construct: Recombinant, expressed in HEK293 cells
Method: (§3) The chip surface was regenerated by injecting 3M MgCl₂ solution at 10 μL/min for 30 s. Association rates (Kₒₙ) and dissociation rates (Koff) were calculated from association and dissociation sensorgrams fitted by a 1:1 binding model using Biacore X100 evaluation software version 2.0.1. The dissociation equilibrium constant (KD) was calculated as the ratio Koff/Kₒₙ.

[6] = molecular target: T3, extracellular region of human CD3E with …; assay: SPR, Biacore X100; antibody captured by anti-human IgG (Fc), hCD3E-his as analyte, 1:1 model
Method: as §3

[7] = molecular target: T4, extracellular region of cynomolgus monkey CD3E with C-terminal His tag (mfCD3E-his) (cynomolgus monkey (Macaca fascicularis), UniProt Q95LI5 22-117); assay: SPR, Biacore X100; antibody captured by anti-human IgG (Fc), mfCD3E-his as analyte, 1:1 model
T4 construct: Recombinant, expressed in HEK293 cells
T4 sequence: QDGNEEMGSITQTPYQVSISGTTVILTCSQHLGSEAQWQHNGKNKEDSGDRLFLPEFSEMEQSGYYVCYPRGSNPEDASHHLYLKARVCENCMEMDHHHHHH
Method: as §3

[8] = molecular target: T2, extracellular region of human CD123 …; assay: phage display, solid-phase screening on hCD123-SP1-His, three rounds
[9] = molecular target: T2, extracellular region of human CD123 …; assay: SPR, Biacore X100; antibody captured by anti-human IgG (Fc) on CM5, hCD123-SP1-his as analyte, 1:1 model, 25 C
Method: as §2

T3 sequence (P07766 other isoform, or with tags, fused parts or gaps limits assumed): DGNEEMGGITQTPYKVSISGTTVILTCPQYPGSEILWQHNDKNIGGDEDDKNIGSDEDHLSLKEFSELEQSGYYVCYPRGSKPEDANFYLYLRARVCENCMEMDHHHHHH

B1: anti-CD123 monoclonal antibody H7A3-h2-m5+L27E5 (antibody, V domains shown)
VH: QVQLVQSGAEVKKPGASVKVSCKASGYTFTSYDVSWVRQAPGQRLEWMGWVYPVDGSTKFNEKFKGRVTLTADRSSSTAYMELSSLRSEDTAVYYCARLTYGDFGDAMDYWGQGTLVTVSS
VL: DIVMTQTPLSLSVTPGQPASISCKSSQSLVHSNDNTYLTWYLQKPGQSPQLLIYKVSNRFSGVPDRFSGSGSGTDFTLKISRVEAEDVGVYYCGQGTQYPFTFGQGTKLEIK
notes: Expressed as a whole antibody of human IgG1 with the common light chain L27E5; also called H7A3 humanized version H7A3-h2-m5
- EC50 (read off the curve) [1]: ~3 nM
- Kd [2]: 3.1 nM
- Kd [3]: 0.244 nM
- koff [3]: 7.67e-05 s⁻¹
- kon [3]: 314000 M⁻¹ s⁻¹
- Kd [4]: 0.22 nM
- koff [4]: 5.14e-05 s⁻¹
- kon [4]: 234000 M⁻¹ s⁻¹

B2: anti-CD3E monoclonal antibody H3B8+L27E5 (antibody, V domains shown)
VH: EVQLVESGGGLVQPGGSLRLSCAASGFTFSNAWMHWVRQAPGKGLEWVGQIKDKSNNYATYYADAVKGRFTISRDDSKNSLYLQMNSLKTEDTAVYYCRYVHYGVRFFYTMDVWGQGTTVTVSS
VL: DIVMTQTPLSLSVTPGQPASISCKSSQSLVHSNDNTYLTWYLQKPGQSPQLLIYKVSNRFSGVPDRFSGSGSGTDFTLKISRVEAEDVGVYYCGQGTQYPFTFGQGTKLEIK
notes: captured by an anti-human IgG (Fc) antibody in SPR; also called WM03-C6 humanized monoclonal antibody
- Kd [5]: 47.6 nM
- koff [5]: 0.000993 s⁻¹
- kon [5]: 20800 M⁻¹ s⁻¹
- Kd [6]: 12.7 nM
- koff [6]: 0.000711 s⁻¹
- kon [6]: 56100 M⁻¹ s⁻¹
- Kd [7]: 5.26 nM
- koff [7]: 0.000649 s⁻¹
- kon [7]: 123000 M⁻¹ s⁻¹

B3: S8F3VH+L27E5 (antibody, V domains shown)
VH: QVQLQQSGAELAKPGASVKISCKASGYTFTSYDVSWVKQRPGQGLEWIGWVYPVDGSTKFNEKFKGKATLTADRSSSTAYMQLTSLTSEDSAVYFCARLRYGNYGDAMDDWGQGTSVTVSA
VL: DIVMTQTPLSLSVTPGQPASISCKSSQSLVHSNDNTYLTWYLQKPGQSPQLLIYKVSNRFSGVPDRFSGSGSGTDFTLKISRVEAEDVGVYYCGQGTQYPFTFGQGTKLEIK
notes: built from the label (S8F3VH heavy chain variable region with the L27E5 light chain)
- Kd [4]: 3.32 nM
- koff [4]: 0.000146 s⁻¹
- kon [4]: 43800 M⁻¹ s⁻¹

B4: H7A3+L27E5 (antibody, V domains shown)
VH: QVQLQQSGAELAKPGASVKISCKASGYTFTSYDVSWVKQRPGQGLEWIGWVYPVDGSTKFNEKFKGKATLTADRSSSTAYMQLTSLTSEDSAVYFCARLTYGDFGDAMDYWGQGTSVTVSA
VL: DIVMTQTPLSLSVTPGQPASISCKSSQSLVHSNDNTYLTWYLQKPGQSPQLLIYKVSNRFSGVPDRFSGSGSGTDFTLKISRVEAEDVGVYYCGQGTQYPFTFGQGTKLEIK
notes: Whole antibody: H7A3 variable region fused to a human heavy chain constant region, combined with the L27E5 light chain; also called S8F3 heavy chain mutant H7A3
- Kd [3]: 0.226 nM
- koff [3]: 6.89e-05 s⁻¹
- kon [3]: 305000 M⁻¹ s⁻¹
- Kd [4]: 0.246 nM
- koff [4]: 6.64e-05 s⁻¹
- kon [4]: 270000 M⁻¹ s⁻¹

B5: anti-human CD123 single chain fragment variable S8F3 (scFv)
scFv: QVQLQQSGAELAKPGASVKISCKASGYTFTSYDVSWVKQRPGQGLEWIGWVYPVDGSTKFNEKFKGKATLTADRSSSTAYMQLTSLTSEDSAVYFCARLRYGNYGDAMDDWGQGTSVTVSAGGGGSGGGGSGGGGSDVVMTQTPVSLSVSLGDQVSISCRPSQSLVHNNGNTYLSWYLQKPGQSPHPLIYKVSNRFSGISDRFSGSGSGTDFTLKISRVEPDDLGVYYCGQGTQYPFTFGSGTKLEIK
- binding result [8]: binds

B6: control bispecific antibody Xmab14045 (bispecific antibody)
heavy: QVQLQQSGAEVKKPGASVKVSCKASGYTFTDYYMKWVKQSHGKSLEWMGDIIPSNGATFYNQKFKGKATLTVDRSTSTAYMELSSLRSEDTAVYYCARSHLLRASWFAYWGQGTLVTVSSASTKGPSVFPLAPSSKSTSGGTAALGCLVKDYFPEPVTVSWNSGALTSGVHTFPAVLQSSGLYSLSSVVTVPSSSLGTQTYICNVNHKPSDTKVDKKVEPKSCDKTHTCPPCPAPPVAGPSVFLFPPKPKDTLMISRTPEVTCVVVDVKHEDPEVKFNWYVDGVEVHNAKTKPREEEYNSTYRVVSVLTVLHQDWLNGKEYKCKVSNKALPAPIEKTISKAKGQPREPQVYTLPPSREEMTKNQVSLTCDVSGFYPSDIAVEWESDGQPENNYKTTPPVLDSDGSFFLYSKLTVDKSRWEQGDVFSCSVMHEALHNHYTQKSLSLSPGK
scFv: not shown
light: not shown
- Kd [6]: 0.65 nM
- Kd [7]: 0.935 nM

B7: monoclonal antibody WM03-C6 (antibody, V domains shown)
VH: EVQLVETGENLVQPGKSLRLTCATSGFSFSNAWMHWIRQSPEKQLEWVAQIKDKSNNYATYYAESVNGRFTISRDDSKSSIYLHMDNLKEEDSAIYYCRYVHYGVRFFYTMDVWGQGTSVTVSS
VL: DVVMTQTPVSLSVSLGDQVSISCRPSQSLVHNNGNTYLSWYLQKPGQSPHPLIYKVSNRFSGISDRFSGSGSGTDFTLKISRVEPDDLGVYYCGQGTQYPFTFGSGTKLEIK
notes: also called rat monoclonal antibody WM03-C6; 20E5-F10 of WO 2016/116626 A1
- Kd [5]: 10.6 nM
- koff [5]: 0.000288 s⁻¹
- kon [5]: 27200 M⁻¹ s⁻¹

B8: S8F3VH+C6VK (antibody, V domains shown)
VH: QVQLQQSGAELAKPGASVKISCKASGYTFTSYDVSWVKQRPGQGLEWIGWVYPVDGSTKFNEKFKGKATLTADRSSSTAYMQLTSLTSEDSAVYFCARLRYGNYGDAMDDWGQGTSVTVSA
VL: DVVMTQTPVSLSVSLGDQVSISCRPSQSLVHNNGNTYLSWYLQKPGQSPHPLIYKVSNRFSGISDRFSGSGSGTDFTLKISRVEPDDLGVYYCGQGTQYPFTFGSGTKLEIK
notes: Whole antibody: variable regions fused to a human heavy chain constant region and a light chain constant region; also called recombinant anti-CD123 monoclonal antibody
- Kd [9]: 8.03 nM
- koff [9]: 0.00365 s⁻¹
- kon [9]: 455000 M⁻¹ s⁻¹
